Test results as given in patent publication US20130123349A1.
Read-outs that look alike come from different tables or passages of the source.

Experiments:
[1] = target: T1, GFOGER peptide, GPC(GPP)5GFOGER(GPP)5GPC, cross-linked; test: SPR, Aegyptin over immobilized cross-linked GFOGER peptide, two-state model; Ka1
[2] = target: T2, […] peptide, GPC-(GPP)5-[…]-(GPP)5-GPC-NH2, cross-linked; test: SPR, Aegyptin over immobilized cross-linked RGQOGVMGFO peptide, two-state model
[3] = target: T2, […] peptide, …
[4] = target: T2, […] peptide, …; remark: listed apart in the source
[5] = target: T1, GFOGER peptide, …; test: SPR, Aegyptin over immobilized cross-linked GFOGER peptide, two-state model
[6] = target: T1, GFOGER peptide, …; test: SPR, Aegyptin over immobilized cross-linked GFOGER peptide, two-state model; Kd1

B1: recombinant Aegyptin, O01949 20-273 (protein)
chain: RPMPEDEEPVAEGGDDDASGESEGEEETTDDAGGDGGEEENEGEEHAGDKDAGGEDTGKEENTGHDDAGEEDAGEEDAGEEDAGEEDAGEEDAEKEEGEKEDAGDDAGSDDGEEDSTGGDEGEDNAEDSKGSEKNDPADTYRQVVALLDKDTKVDHIQSEYLRSALNNDLQSEVRVPVVEAIGRIGDYSKIQGCFKSMGKDVKKVISEEEKKFKSCMSKKKSEYQCSEDSFAAAKSKLSPITSKIKSCVSSKGRHHHHHH
B1 was tested. Which kon [1] did it give?
The kon was 406000 M⁻¹ s⁻¹.

What about the Kd [2] of the same binder?
Its Kd is 139 nM.

And the Kd2 (two-state model) [2]?
The Kd2 (two-state model) was 0.00194 s⁻¹.

And the second Ka of the two-state model [2]?
Its second Ka of the two-state model is 0.000981 M⁻¹ s⁻¹.

What about the koff [3] of the same binder?
Its koff is 0.013 s⁻¹.

And the kon [3]?
The kon was 61900 M⁻¹ s⁻¹.

And the IC50 [4]?
The IC50 was 300 nM.

What about the Kd [4] of the same binder?
Its Kd is 139 nM.

And the Kd [5]?
The Kd was 2400 nM.

And the Kd2 (two-state model) [5]?
Its Kd2 (two-state model) is 0.00261 s⁻¹.

What about the second Ka of the two-state model [5] of the same binder?
Its second Ka of the two-state model is 0.000366 M⁻¹ s⁻¹.

And the koff [6]?
Its koff is 0.943 s⁻¹.
